The values below come from paper PMC6548343.

In this experiment the target is Nucleosomes (Nuc207) with 30 bp linker DNA at both ends. Put plainly: EM 3D reconstruction of the assembled complex; ~30 μg/ml actin/Arp module with a 10-fold molar excess of Nuc207, 2 h at 4°C, 20 mM HEPES pH 8.0, 40 mM KOAc, 5 mM MgCl2, no ATP; two binding states.

For the substance “INO80 N-terminal subcomplex (N.com) (from UniProt P53115 356-691; P60010 1-375; P80428 1-489; Q12386 1-881; P35189 1-244; Q08561 1-116)”, the stoichiometry N stood at 1.

By stoichiometry N is commonly meant the number of molecules, sites or subunits per partner or assembly.
